# Substitutions are numbered along the chain they refer to.
# B1: NRC3_wobSeed121_DR5_T8A_o1 (dsDNA)
# DNA 1: GCCAAACAAGGTCACCGGAAGGTCAAAGTCCGCATGGCGATTGACAGCGTAGAATGAAGG
# DNA 2: CCTTCATTCTACGCTGTCAATCGCCATGCGGACTTTGACCTTCCGGTGACCTTGTTTGGC
# B2: NRC3_wobSeed121_DR5_T8G_o1 (dsDNA)
# DNA 1: B1 DNA 1 with A8G
# DNA 2: B1 DNA 2 with T53C
# B3: NRC3_wobSeed77_DR3_C8G_o1 (dsDNA)
# DNA 1: GCACTTAGGGGTCAACGAGGTTATAGCACGCGTATAGCGATTGACAGCGTAGAATGAAGG
# DNA 2: CCTTCATTCTACGCTGTCAATCGCTATACGCGTGCTATAACCTCGTTGACCCCTAAGTGC
# B4: NRC3_wobSeed73_DR3_T8G_o1 (dsDNA)
# DNA 1: GCCAAACGAGGTCACAGAGGTCAAAGTCCGTGCGTAGCGATTGACAGCGTAGAATGAAGG
# DNA 2: CCTTCATTCTACGCTGTCAATCGCTACGCACGGACTTTGACCTCTGTGACCTCGTTTGGC
# B5: NRC3_wobSeed101_DR4_C8G_o1 (dsDNA)
# DNA 1: GCCCTTAGGGGTCACTCCAGGTTATAGCATCGGAGTGCGATTGACAGCGTAGAATGAAGG
# DNA 2: CCTTCATTCTACGCTGTCAATCGCACTCCGATGCTATAACCTGGAGTGACCCCTAAGGGC
# B6: NRC3_wobSeed117_DR4_A23C_o1 (dsDNA)
# DNA 1: GCCGTCAAAGTTCAACTAAGGTCACGTAAAGCACGCGCGATTGACAGCGTAGAATGAAGG
# DNA 2: CCTTCATTCTACGCTGTCAATCGCGCGTGCTTTACGTGACCTTAGTTGAACTTTGACGGC
# B7: NRC3_wobSeed49_DR2_T8A_o1 (dsDNA)
# DNA 1: GCCAAACAAGGTCAAGAGGTCAAAGTCCGCTTCCCGGCGATTGACAGCGTAGAATGAAGG
# DNA 2: CCTTCATTCTACGCTGTCAATCGCCGGGAAGCGGACTTTGACCTCTTGACCTTGTTTGGC
# B8: NRC3_wobSeed25_DR1_T8A_o1 (dsDNA)
# DNA 1: GCCAAACAAGGTCAAAGGTCAAAGTCGAGCCAACCAGCGATTGACAGCGTAGAATGAAGG
# DNA 2: CCTTCATTCTACGCTGTCAATCGCTGGTTGGCTCGACTTTGACCTTTGACCTTGTTTGGC
# B9: NRC3_wobSeed25_DR1_T8G_o1 (dsDNA)
# DNA 1: B8 DNA 1 with A8G
# DNA 2: B8 DNA 2 with T53C
# B10: NRC3_wobSeed141_DR5_A24C_o1 (dsDNA)
# DNA 1: GCAGTCAAAGTTCAGGACGAGGTCACGTAAAGCACGGCGATTGACAGCGTAGAATGAAGG
# DNA 2: CCTTCATTCTACGCTGTCAATCGCCGTGCTTTACGTGACCTCGTCCTGAACTTTGACTGC
# B11: NRC3_wobSeed100_DR4_C12T_o1 (dsDNA)
# DNA 1: GCCCTACTGGGTCACGAAAGGTCATTGATTCAGTGAGCGATTGACAGCGTAGAATGAAGG
# DNA 2: CCTTCATTCTACGCTGTCAATCGCTCACTGAATCAATGACCTTTCGTGACCCAGTAGGGC
# Molecular target: FXR:RXRa (Homo sapiens, UniProt Q96RI1;P19793 full;full)
# Experiment: no ligand; PBM; 270 nM : 90 nM RXRa; PBS pH 7.4, 2% milk, 0.02% Triton X-100, 1 mM DTT, BSA, 0.4 mg/ml salmon testes DNA
# Details: tags: His kept;His cleaved; copies: 1;1; label: surface-attached array probe
# In short: (§1)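 Ligand-free nuclear receptor dimers were applied to custom Agilent 4×180K protein-binding microarrays whose double-stranded probes carried direct-repeat seeds, single-nucleotide variants, half-site ablations and random human genomic background sequences in 34-nt variable regions. Incubation lasted 1 h. Binding z-scores were computed against the random background probes from regression-normalized fluorescence.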
row,Binder,binding signal
1,B1,8.52 PBM z-score against 500 random probes
2,B2,8.64 PBM z-score against 500 random probes
3,B3,9.08 PBM z-score against 500 random probes
4,B4,9.18 PBM z-score against 500 random probes
5,B5,8.32 PBM z-score against 500 random probes
6,B6,7.83 PBM z-score against 500 random probes
7,B7,8.52 PBM z-score against 500 random probes
8,B8,9.54 PBM z-score against 500 random probes
9,B9,9.93 PBM z-score against 500 random probes

# Molecular target: RARg:RXRa (Homo sapiens, UniProt P13631;P19793 full;full)
# Experiment: as above
# Details: tags: His kept;His cleaved; copies: 1;1; label: surface-attached array probe
# In short: as §1
row,Binder,binding signal
1,B1,9.36 PBM z-score against 500 random probes
2,B2,9.6 PBM z-score against 500 random probes
3,B3,8.09 PBM z-score against 500 random probes
4,B4,8.72 PBM z-score against 500 random probes
5,B5,7.43 PBM z-score against 500 random probes
6,B6,7.95 PBM z-score against 500 random probes
7,B7,9.11 PBM z-score against 500 random probes
8,B8,9.65 PBM z-score against 500 random probes
9,B9,9.68 PBM z-score against 500 random probes
10,B10,8.19 PBM z-score against 500 random probes

# Molecular target: RARb:RXRa (Homo sapiens, UniProt P10826;P19793 full;full)
# Experiment: as above
# Details: tags: His kept;His cleaved; copies: 1;1; label: surface-attached array probe
# In short: as §1
row,Binder,binding signal
1,B1,6.21 PBM z-score against 500 random probes
2,B2,6.23 PBM z-score against 500 random probes
3,B3,5.68 PBM z-score against 500 random probes
4,B4,5.94 PBM z-score against 500 random probes
5,B6,6.07 PBM z-score against 500 random probes
6,B7,6.31 PBM z-score against 500 random probes
7,B8,6.19 PBM z-score against 500 random probes
8,B9,6.33 PBM z-score against 500 random probes
9,B10,5.48 PBM z-score against 500 random probes
10,B11,5.53 PBM z-score against 500 random probes

# Molecular target: LXRa:RXRa (Homo sapiens, UniProt Q13133;P19793 full;full)
# Experiment: as above
# Details: tags: His kept;His cleaved; copies: 1;1; label: surface-attached array probe
# In short: as §1
# Chain of LXRa:RXRa (Q13133 whole entry, chain 1 of 2): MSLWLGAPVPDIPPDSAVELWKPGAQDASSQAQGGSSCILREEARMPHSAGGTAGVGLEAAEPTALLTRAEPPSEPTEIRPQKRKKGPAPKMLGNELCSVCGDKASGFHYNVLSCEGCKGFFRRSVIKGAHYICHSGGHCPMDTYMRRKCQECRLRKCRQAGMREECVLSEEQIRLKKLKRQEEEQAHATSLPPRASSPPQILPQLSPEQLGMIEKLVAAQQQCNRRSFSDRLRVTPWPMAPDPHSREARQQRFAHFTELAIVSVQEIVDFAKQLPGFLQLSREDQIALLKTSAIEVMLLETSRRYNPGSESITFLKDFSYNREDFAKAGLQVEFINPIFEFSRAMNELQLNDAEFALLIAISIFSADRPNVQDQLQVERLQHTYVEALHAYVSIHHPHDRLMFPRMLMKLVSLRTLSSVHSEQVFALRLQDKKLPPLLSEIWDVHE
# Chain of LXRa:RXRa (P19793 whole entry, chain 2 of 2): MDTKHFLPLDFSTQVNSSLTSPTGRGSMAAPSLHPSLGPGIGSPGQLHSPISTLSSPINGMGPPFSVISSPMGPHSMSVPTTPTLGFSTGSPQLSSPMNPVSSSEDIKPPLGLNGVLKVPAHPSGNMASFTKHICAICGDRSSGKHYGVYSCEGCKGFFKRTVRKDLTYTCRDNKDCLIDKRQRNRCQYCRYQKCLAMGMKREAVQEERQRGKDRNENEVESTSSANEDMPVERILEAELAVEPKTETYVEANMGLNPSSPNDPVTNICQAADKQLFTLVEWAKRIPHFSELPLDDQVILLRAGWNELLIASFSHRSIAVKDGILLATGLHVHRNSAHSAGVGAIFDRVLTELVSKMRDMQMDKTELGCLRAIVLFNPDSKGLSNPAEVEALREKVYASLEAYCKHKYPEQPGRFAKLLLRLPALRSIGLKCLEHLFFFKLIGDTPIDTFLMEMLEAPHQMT
row,Binder,binding signal
1,B1,7.26 PBM z-score against 500 random probes
2,B2,7.39 PBM z-score against 500 random probes
3,B3,7.15 PBM z-score against 500 random probes
4,B4,7.82 PBM z-score against 500 random probes
5,B5,8.6 PBM z-score against 500 random probes
6,B6,8.08 PBM z-score against 500 random probes
7,B7,7.44 PBM z-score against 500 random probes
8,B8,8.24 PBM z-score against 500 random probes
9,B9,8.54 PBM z-score against 500 random probes
10,B11,8.11 PBM z-score against 500 random probes

# Molecular target: PXR:RXRa (Homo sapiens, UniProt O75469;P19793 full;full)
# Experiment: as above
# Details: tags: His kept;His cleaved; copies: 1;1; label: surface-attached array probe
# In short: as §1
# Chain of PXR:RXRa (O75469 whole entry, chain 1 of 2): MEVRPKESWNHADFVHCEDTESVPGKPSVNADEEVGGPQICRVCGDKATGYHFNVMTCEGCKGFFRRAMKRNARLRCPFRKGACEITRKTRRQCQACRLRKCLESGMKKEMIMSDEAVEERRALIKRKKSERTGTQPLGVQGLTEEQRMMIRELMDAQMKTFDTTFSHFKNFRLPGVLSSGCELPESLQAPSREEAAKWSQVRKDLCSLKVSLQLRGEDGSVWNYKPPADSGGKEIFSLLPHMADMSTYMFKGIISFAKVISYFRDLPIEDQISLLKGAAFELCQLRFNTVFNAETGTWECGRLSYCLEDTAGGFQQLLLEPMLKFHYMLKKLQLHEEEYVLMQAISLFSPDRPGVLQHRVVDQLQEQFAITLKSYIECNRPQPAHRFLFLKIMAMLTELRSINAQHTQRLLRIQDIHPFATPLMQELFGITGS
# Chain of PXR:RXRa (P19793 whole entry, chain 2 of 2): as the sequence (P19793 whole entry, chain 2 of 2) above
row,Binder,binding signal
1,B1,7.43 PBM z-score against 500 random probes
2,B2,7.41 PBM z-score against 500 random probes
3,B3,7.16 PBM z-score against 500 random probes
4,B4,8.14 PBM z-score against 500 random probes
5,B5,7.15 PBM z-score against 500 random probes
6,B6,7.87 PBM z-score against 500 random probes
7,B7,7.38 PBM z-score against 500 random probes
8,B8,7.73 PBM z-score against 500 random probes
9,B9,7.89 PBM z-score against 500 random probes
10,B10,6.95 PBM z-score against 500 random probes
11,B11,7.22 PBM z-score against 500 random probes

# Molecular target: PPARa:RXRa (Homo sapiens, UniProt Q07869;P19793 full;full)
# Experiment: as above
# Details: tags: GST kept;His cleaved; copies: 1;1; label: surface-attached array probe
# In short: as §1
row,Binder,binding signal
1,B2,7.14 PBM z-score against 500 random probes
2,B3,7.03 PBM z-score against 500 random probes
3,B4,7.16 PBM z-score against 500 random probes
4,B5,6.76 PBM z-score against 500 random probes
5,B7,7.02 PBM z-score against 500 random probes

# Molecular target: RARa:RXRa (Homo sapiens, UniProt P10276;P19793 full;full)
# Experiment: as above
# Details: tags: His kept;His cleaved; copies: 1;1; label: surface-attached array probe
# In short: as §1
row,Binder,binding signal
1,B1,8.86 PBM z-score against 500 random probes
2,B2,8.77 PBM z-score against 500 random probes
3,B3,7.93 PBM z-score against 500 random probes
4,B4,9.08 PBM z-score against 500 random probes
5,B5,7.45 PBM z-score against 500 random probes
6,B6,7.16 PBM z-score against 500 random probes
7,B7,9.05 PBM z-score against 500 random probes
8,B8,9.67 PBM z-score against 500 random probes
9,B9,9.62 PBM z-score against 500 random probes
10,B10,7.52 PBM z-score against 500 random probes
11,B11,7.1 PBM z-score against 500 random probes

# Molecular target: LXRb:RXRa (Homo sapiens, UniProt P55055;P19793 full;full)
# Experiment: as above
# Details: tags: His kept;His cleaved; copies: 1;1; label: surface-attached array probe
# In short: as §1
# Chain of LXRb:RXRa (P55055 whole entry, chain 1 of 2): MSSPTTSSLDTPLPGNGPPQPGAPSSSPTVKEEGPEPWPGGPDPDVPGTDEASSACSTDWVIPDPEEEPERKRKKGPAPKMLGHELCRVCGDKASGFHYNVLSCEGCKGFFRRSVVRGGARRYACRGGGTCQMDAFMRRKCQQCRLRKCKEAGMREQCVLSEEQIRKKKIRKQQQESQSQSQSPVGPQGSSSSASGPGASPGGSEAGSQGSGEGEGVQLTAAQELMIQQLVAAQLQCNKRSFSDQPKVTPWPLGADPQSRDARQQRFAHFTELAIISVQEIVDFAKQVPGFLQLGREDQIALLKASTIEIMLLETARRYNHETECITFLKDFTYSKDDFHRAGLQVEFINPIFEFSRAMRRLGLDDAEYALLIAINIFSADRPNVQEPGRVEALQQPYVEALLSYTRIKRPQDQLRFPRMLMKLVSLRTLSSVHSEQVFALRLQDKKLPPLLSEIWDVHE
# Chain of LXRb:RXRa (P19793 whole entry, chain 2 of 2): as the sequence (P19793 whole entry, chain 2 of 2) above
row,Binder,binding signal
1,B1,7.08 PBM z-score against 500 random probes
2,B2,7.15 PBM z-score against 500 random probes
3,B3,6.91 PBM z-score against 500 random probes
4,B4,7.74 PBM z-score against 500 random probes
5,B5,7.21 PBM z-score against 500 random probes
6,B6,7.09 PBM z-score against 500 random probes
7,B7,6.73 PBM z-score against 500 random probes
8,B8,8.13 PBM z-score against 500 random probes
9,B9,8.31 PBM z-score against 500 random probes
10,B11,6.66 PBM z-score against 500 random probes

# Molecular target: VDR:RXRa (Homo sapiens, UniProt P11473;P19793 full;full)
# Experiment: as above
# Details: tags: His kept;His cleaved; copies: 1;1; label: surface-attached array probe
# In short: as §1
# Chain of VDR:RXRa (P11473 whole entry, chain 1 of 2): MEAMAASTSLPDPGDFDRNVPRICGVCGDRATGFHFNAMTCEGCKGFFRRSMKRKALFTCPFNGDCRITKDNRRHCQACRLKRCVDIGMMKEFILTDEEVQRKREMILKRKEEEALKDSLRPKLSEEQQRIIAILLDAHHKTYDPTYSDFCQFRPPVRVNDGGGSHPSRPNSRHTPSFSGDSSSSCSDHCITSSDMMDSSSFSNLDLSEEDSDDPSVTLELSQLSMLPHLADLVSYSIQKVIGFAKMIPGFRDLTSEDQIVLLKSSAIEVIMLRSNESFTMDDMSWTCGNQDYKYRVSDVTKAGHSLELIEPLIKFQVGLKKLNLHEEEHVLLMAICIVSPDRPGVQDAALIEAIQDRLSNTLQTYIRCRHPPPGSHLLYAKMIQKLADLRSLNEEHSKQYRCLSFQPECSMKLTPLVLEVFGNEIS
# Chain of VDR:RXRa (P19793 whole entry, chain 2 of 2): as the sequence (P19793 whole entry, chain 2 of 2) above
row,Binder,binding signal
1,B1,7.25 PBM z-score against 500 random probes
2,B2,7.56 PBM z-score against 500 random probes
3,B3,8.74 PBM z-score against 500 random probes
4,B4,8.86 PBM z-score against 500 random probes
5,B5,6.64 PBM z-score against 500 random probes
6,B6,7.49 PBM z-score against 500 random probes
7,B7,7.22 PBM z-score against 500 random probes
8,B8,7.62 PBM z-score against 500 random probes
9,B9,8.02 PBM z-score against 500 random probes
10,B10,6.63 PBM z-score against 500 random probes

# Molecular target: RXRa (Homo sapiens, UniProt P19793)
# Experiment: no ligand; PBM; 180 nM; PBS pH 7.4, 2% milk, 0.02% Triton X-100, 1 mM DTT, BSA, 0.4 mg/ml salmon testes DNA
# Details: tags: His cleaved; chain copies: 2; label: surface-attached array probe
# Chain of RXRa (P19793 whole entry): as the sequence (P19793 whole entry, chain 2 of 2) above
row,Binder,binding signal
1,B1,8.89 PBM z-score against 500 random probes
2,B2,9.51 PBM z-score against 500 random probes
3,B3,9.89 PBM z-score against 500 random probes
4,B4,9.83 PBM z-score against 500 random probes
5,B5,8.62 PBM z-score against 500 random probes
6,B7,9.65 PBM z-score against 500 random probes
7,B8,11.2 PBM z-score against 500 random probes
8,B9,11 PBM z-score against 500 random probes

# Molecular target: THRa:RXRa (Homo sapiens, UniProt P10827;P19793 full;full)
# Experiment: no ligand; PBM; 90 nM : 90 nM RXRa; PBS pH 7.4, 2% milk, 0.02% Triton X-100, 1 mM DTT, BSA, 0.4 mg/ml salmon testes DNA
# Details: tags: His kept;His cleaved; copies: 1;1; label: surface-attached array probe
# Chain of THRa:RXRa (P10827 other isoform, or with tags, fused parts or gaps, chain 1 of 2): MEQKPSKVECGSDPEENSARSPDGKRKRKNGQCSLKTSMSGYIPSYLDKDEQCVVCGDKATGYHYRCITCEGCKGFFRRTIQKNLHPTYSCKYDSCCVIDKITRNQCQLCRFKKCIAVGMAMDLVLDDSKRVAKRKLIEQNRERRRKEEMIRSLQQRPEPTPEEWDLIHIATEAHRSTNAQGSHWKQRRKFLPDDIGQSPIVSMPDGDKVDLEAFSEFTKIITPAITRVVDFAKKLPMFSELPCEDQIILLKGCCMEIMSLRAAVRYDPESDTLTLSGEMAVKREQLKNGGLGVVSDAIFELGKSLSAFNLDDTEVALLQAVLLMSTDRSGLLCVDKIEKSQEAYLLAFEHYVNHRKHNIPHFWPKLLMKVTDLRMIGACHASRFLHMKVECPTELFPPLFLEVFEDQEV
# Chain of THRa:RXRa (P19793 whole entry, chain 2 of 2): as the sequence (P19793 whole entry, chain 2 of 2) above
row,Binder,binding signal
1,B1,5.05 PBM z-score against 500 random probes
2,B2,5.39 PBM z-score against 500 random probes
3,B3,4.82 PBM z-score against 500 random probes
4,B4,5.25 PBM z-score against 500 random probes
5,B5,5.63 PBM z-score against 500 random probes
6,B6,5.72 PBM z-score against 500 random probes
7,B7,4.99 PBM z-score against 500 random probes
8,B8,5.07 PBM z-score against 500 random probes
9,B9,5.46 PBM z-score against 500 random probes
10,B10,5.13 PBM z-score against 500 random probes
11,B11,5.47 PBM z-score against 500 random probes

# Reference: article PMC6555819, “Comprehensive study of nuclear receptor DNA binding provides a revised framework for understanding receptor specificity”
